Test [1] has as its target T1, Signal peptide peptidase (SPP) fluorescent fusion protein (CFP or YFP fused to the NH2- or COOH-terminus of SPP), Q8TCT9.
T1 chain: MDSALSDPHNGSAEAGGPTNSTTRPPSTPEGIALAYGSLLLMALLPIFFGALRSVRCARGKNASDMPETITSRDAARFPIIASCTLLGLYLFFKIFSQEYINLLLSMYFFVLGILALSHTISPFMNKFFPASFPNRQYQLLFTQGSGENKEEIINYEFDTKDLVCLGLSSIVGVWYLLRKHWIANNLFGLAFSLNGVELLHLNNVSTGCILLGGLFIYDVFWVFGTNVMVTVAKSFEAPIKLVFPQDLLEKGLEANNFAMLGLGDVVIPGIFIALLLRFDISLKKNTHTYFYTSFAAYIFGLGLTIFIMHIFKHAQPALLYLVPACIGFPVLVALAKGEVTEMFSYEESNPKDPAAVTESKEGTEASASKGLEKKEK
Put plainly: FRET or BRET; FLIM (fluorescence lifetime imaging microscopy) in live CHO cells co-transfected with CFP-SPP (donor) and YFP-SPP (acceptor) fusion constructs, 24 hours post-transfection, in Hank's Balanced Salt Solution; donor-only (empty vector) as negative control. The conditions noted are these: remark: other sources report otherwise.

The target in test [2] is T2, Epitope tagged signal peptide peptidase (SPP): COOH-terminal V5 tagged SPP (SPPCTV5) and NH2-terminal FLAG tagged SPP (…), Q8TCT9.
T2 chain: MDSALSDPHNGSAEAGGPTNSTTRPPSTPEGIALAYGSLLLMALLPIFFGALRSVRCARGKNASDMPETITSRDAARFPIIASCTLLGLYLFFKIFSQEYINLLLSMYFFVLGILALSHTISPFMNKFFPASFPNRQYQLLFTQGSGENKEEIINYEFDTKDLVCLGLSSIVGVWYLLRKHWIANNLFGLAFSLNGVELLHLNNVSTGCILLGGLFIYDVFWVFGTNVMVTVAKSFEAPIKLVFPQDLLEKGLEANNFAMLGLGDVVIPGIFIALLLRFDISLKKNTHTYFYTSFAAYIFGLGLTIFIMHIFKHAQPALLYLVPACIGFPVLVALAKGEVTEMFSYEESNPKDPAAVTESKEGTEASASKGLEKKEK
Briefly: FRET or BRET; FLIM in fixed (4% paraformaldehyde), permeabilised HEK cells stably overexpressing SPPCTV5 and …; goat anti-V5 labelled with Alexa 488 (donor), mouse anti-FLAG labelled with Cy3 (acceptor); cells expressing only SPPCTV5 as negative control. The conditions noted are these: remark: other sources report otherwise. (In BRET a luciferase serves as donor, and the signal depends on an acceptor being close.)

B1: Signal peptide peptidase (SPP) fluorescent fusion protein (CFP or YFP fused to the NH2- or COOH-terminus of SPP), Q8TCT9 1-377 (enzyme)
chain: MDSALSDPHNGSAEAGGPTNSTTRPPSTPEGIALAYGSLLLMALLPIFFGALRSVRCARGKNASDMPETITSRDAARFPIIASCTLLGLYLFFKIFSQEYINLLLSMYFFVLGILALSHTISPFMNKFFPASFPNRQYQLLFTQGSGENKEEIINYEFDTKDLVCLGLSSIVGVWYLLRKHWIANNLFGLAFSLNGVELLHLNNVSTGCILLGGLFIYDVFWVFGTNVMVTVAKSFEAPIKLVFPQDLLEKGLEANNFAMLGLGDVVIPGIFIALLLRFDISLKKNTHTYFYTSFAAYIFGLGLTIFIMHIFKHAQPALLYLVPACIGFPVLVALAKGEVTEMFSYEESNPKDPAAVTESKEGTEASASKGLEKKEK
On to B1, for which, in test [1], the CFP donor lifetime (donor CFP at COOH-terminus of SPP, acceptor YFP at COOH-terminus of SPP; donor only 2267 psec) worked out at 1490 psec; the CFP donor lifetime (donor CFP at NH2-terminus of SPP, acceptor YFP at COOH-terminus of SPP; donor only 2267 psec) turned out to be 1530 psec; the CFP donor lifetime (donor CFP at NH2-terminus of SPP, acceptor YFP at NH2-terminus of SPP; donor only 2267 psec) was determined as 1760 psec.

B2: Epitope tagged signal peptide peptidase (SPP): COOH-terminal V5 tagged SPP (SPPCTV5) and NH2-terminal FLAG tagged SPP (…), Q8TCT9 1-377 (enzyme)
chain: MDSALSDPHNGSAEAGGPTNSTTRPPSTPEGIALAYGSLLLMALLPIFFGALRSVRCARGKNASDMPETITSRDAARFPIIASCTLLGLYLFFKIFSQEYINLLLSMYFFVLGILALSHTISPFMNKFFPASFPNRQYQLLFTQGSGENKEEIINYEFDTKDLVCLGLSSIVGVWYLLRKHWIANNLFGLAFSLNGVELLHLNNVSTGCILLGGLFIYDVFWVFGTNVMVTVAKSFEAPIKLVFPQDLLEKGLEANNFAMLGLGDVVIPGIFIALLLRFDISLKKNTHTYFYTSFAAYIFGLGLTIFIMHIFKHAQPALLYLVPACIGFPVLVALAKGEVTEMFSYEESNPKDPAAVTESKEGTEASASKGLEKKEK
In test [2], B2 yielded an Alexa 488 donor lifetime (donor Alexa 488 labeled SPPCTV5, acceptor Cy3 labeled …) of 2200 psec and an Alexa 488 donor lifetime (donor Alexa 488 labeled SPPCTV5, acceptor Cy3 labeled …; donor only 2504 psec) of 1980 psec.

For the origin of these results see PMC1654158.
